From a protein production outcome set (Wang et al. 2014)

Assay: label from the status in PepcDB records
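Also: failed if final PepcDB status was selected cloned or expressed and not failed if soluble or beyond.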

Sequence | protein production
VSKAVQYMAKRRIGALIVFEKETGLQDYIETGIAMDSNISQELLINVFIPNTPLHDGAMIIQGTKIAAAASYLPLSDSPKISKSLGTRHRAAVGISEVSDAFTVIVSEETGDISVTFDGKLRRDISNEIFEELLAEHWFGTRFQKKGVK | failed
MEEPEFQAYVGPRPFEQEDKFIFFGRDREARDLLSLVIAHNLVLVYAQSGAGKTSLINAGLIPLLKENRFEVFPVARVKGTPLRNIKTDEISNIYVLNTLTSWAEDEYDVERLTKMKLVDFLNEQERLQDEDGIPLPRAVIFDQFEEIFSLYQDRWKDREGFFEQISAALETDPLLRVVFVIREDFIAQLDPYVELLPERLRTRFHIERLRREAALLAIKEPLRDTGRSFAEGVAEKLVDDLLKIRVETTPGETTEVTGEFIEAVQLQVVCQNLWRELPPDVKQITFHHLKTYGNVEQELYRFYEEAIRTAAATAHIDEESLRRLFGEVLITTMGTRGMVYRAQESTGGIPNTAIDVLESMHLIRAEWRAGARWYELTHDGFIKPILSSNRVFNDELAEKERAEKERIEKERIEKEWAEKEWAEKERLEKERAEKERLEKELRAEKELAESKQLFYKRLAAISFLAILLALVAVFEWHQAKENAEEARASDLNLNSALLQGDPRNLDKSVLLAIESLKIHITSTADHLIRQGLLSMPHRVVILKHYSDVNNVVFSPDGKYVATASNDNTSRLWDVSTGKQIFVLNHTDPVRNVVFSPDGKYVATASADKTAGVWNTTTGEGISVLNHTGRVNNVVFSPDGKYIATASDDNTSRLWDTATGKQIFVLNQTDPVRNVVFSPDGKYIATASADNTSRLWDTTTGKQIFDMKHDGPVNIVVFSPDGKYVATASADKKARLWNATTGKKIFDMKHDSGINTVVFSPDGKYIVTASDDKTAGVWNTTTGKKIFDMKHDGSVNTVVFSPDGKYIATASADNTSRLWDTATGEKIFFLNHYGWVNTVVFSPDGKYVATASADKTAHLWDVSTGKQISYLRHDSGVNNVVFGPDGKYVVTASADKTADVWNTTTGEKIFVLNHTGRVNNAVFSPDGKYIATASADNTSRLWDTTTGKQIFVLNQTDPVRNVVFSPDRKYIATASDDNTSRLWDTATGKQILVLNHDGPVNTVVFSSDGKYIATASDDNTSRLWDTATGEEIFVLNHTDRVNNVVFSPDGKYIATAGDDNTSRLWGTATGEKIFDMKHDGPVNNVVFSPDGKYVATAGYDNTACLWDTATGEKIFVLNHAGRVNTVVFSPDGKYIATASADKARLWNATTGKQISYLRHDSGVNNVVFSPDGKYIATASVDKTARLWTAKLWISDTEDLIDEANNRLTRNLKPEEWKEYMGDKPYHKRFPNLP | failed
ATDVAARGLDISGVTHVYNYDIPQDPESYVHRIGRTGRAGKEGMAITFVQPREMGYLRIVEETTKKRMQPLQAPTWDEAFAGQLRVATEKIQEAITEENLADYKTFANELLEKYDATDIAAAMLKMLAKEPDKTPVHITEERPLPSRGGGGYKGK | not failed
STMTVIKDYYALKENEICVSQSEVVQVLAVNQQNMCLVYQPASDHSPAAKGWVPGSILAPF | not failed
RATPSGMLRINASVQAGRAVAPLVLAFLRRYPEMRVDLVTEGRLLDIVAEGFDMGIRPADLVPRDMIALPLGLPVRHAVVASPDWLVRHPEPRSPADLDPDACLRVRLPNGALLRWPFQKDGVPLPFEASGRLTVDEAAIAR | failed
MPTIKDYYLPKRPTLLFSLHPEPTQAIINGTKILEYRRRFFARPFQAFVYTTGDNGGIQLFLRCDQGLQLVPEQLALVGALLQHDAPTTTAAYFEGAKAGLALPITAFTTLPNIPLAQLRRQFENFVTPRSYVFLDQPDRQAQLDWLLTQPCESLTILDWRKRYAALATLLQKLEHHHHHH | not failed
MVSAAGELGTLRQRAWAAAANVVDPEIPVLTIEDLGVLRDVTVSGDRIEVSITPTYSGCPAMTMIALEIELALAREGIAGAKITTVLSPAWTTDWMSDAGRRKLRDYGIAPPLSGGGRRALFGEQQVACPQCGSIATTVLSEFGSTSCKALWRCLDCREPFDYFKCH | failed
MRGYVLGLLALNLLTLIWGTTFVVVKGAVEGMAPSLLILLRFGVAALFFLPWLFRLPVGVFGPGMELAFWLFVGYASQTLGLAHTSASRSAFITALSVVLVPLLLRLAGREVGPAFLAAFLALAGVGLLSYDPYQPPFNVGDLWTFLTALAYALYIVRLEVHARAFPSLPLTAVQVLGTALFALPWVLAEGGAWGPVAWGAVLYLGVVATALTTWLQTWGQRHVPAPQAAILYTLEPVWAAFFAYLALGERLSPSGLLGALLVLLATLLAIRRSPA | failed
